Laboratory results from US20240287501A1 (VIB VZW, published 2024).

Columns and labels:
GFP-tagged HSP104 = target: T1, GFP-tagged HSP104 (Saccharomyces cerevisiae, UniProt P31539 1-908); assay: co-immunoprecipitation, Nb coupled to NHS-agarose beads, lysate of the yeast strain expressing the GFP-tagged target, Western blot anti-GFP
T1 construct: Yeast GFP Fusion Collection strain; also called Yeast GFP fusion collection GFP(+)05, A2; YLL026W; not shown: GFP tag
Description: (§1) One HSP104-specific Nanobody (04=CA18504 SEQ ID NO:40), one MET6-specific Nanobody (05=CA18505 SEQ ID NO:41), two SBA1-specific Nanobodies (08=Nb clone CA18508 corresponding to SEQ ID NO:42, 09=CA18509-SEQ ID NO:43), one SOD1-specific Nanobody (10=CA18510-SEQ ID NO:44), and a ENO1-specific Nanobody (38=CA17938-SEQ ID NO:45), were characterized by co-immunoprecipitation assays. Each POI-specific Nanobodies was covalently linked to NHS-agarose beads. The beads that were functionalized with these POI-specific Nanobodies were incubated for an hour at 4° C. on a rotating device with the lysate of the engineered Yeast strain expressing the POIs (Yeast GFP fusion collection reference: GFP(+)05, A2 (HSP104); GFP(+)07, D4 (MET6); GFP(+)30, A6 (SBA1); GFP(+)33, F8 (SOD1) and GFP(+)17, D12 (ENO1) as a GFP-tagged protein. After washing, these beads were analyzed on SDS-PAGE (not shown) and Western blot was developed with GFP-specific antibody to confirm the presence of GFP-tagged POIs.

[1] = target: T2, PDC1 (native, from EBY100 lysate) (Saccharomyces cerevisiae, UniProt P06169 2-563); assay: co-immunoprecipitation, Nb coupled to NHS-agarose beads, EBY100 yeast lysate (native target), SDS-PAGE
T2 construct: mature; Endogenous untagged protein; also called YLR044C
T2 sequence (looked up): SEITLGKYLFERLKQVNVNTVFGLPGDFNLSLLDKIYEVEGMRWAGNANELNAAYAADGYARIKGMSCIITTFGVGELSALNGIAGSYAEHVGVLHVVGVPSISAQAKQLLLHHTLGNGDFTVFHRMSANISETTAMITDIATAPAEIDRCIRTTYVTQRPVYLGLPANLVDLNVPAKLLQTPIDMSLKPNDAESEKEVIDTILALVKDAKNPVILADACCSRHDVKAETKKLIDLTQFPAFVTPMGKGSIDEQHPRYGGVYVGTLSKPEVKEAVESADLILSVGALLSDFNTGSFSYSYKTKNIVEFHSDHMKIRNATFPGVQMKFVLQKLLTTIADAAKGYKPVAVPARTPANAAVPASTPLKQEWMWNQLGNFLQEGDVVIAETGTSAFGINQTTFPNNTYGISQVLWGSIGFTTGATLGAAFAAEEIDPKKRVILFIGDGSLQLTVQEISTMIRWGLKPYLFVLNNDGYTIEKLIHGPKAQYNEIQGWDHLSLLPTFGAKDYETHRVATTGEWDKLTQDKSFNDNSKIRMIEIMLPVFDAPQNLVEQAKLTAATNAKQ
Experimental: (§2) Two PDC1-specific Nanobodies (51=Nb clone CA17451 corresponding to SEQ ID NO: 7, 52=CA17452-SEQ ID NO: 8) were characterized by co-immunoprecipitation assays. Each PDC1-specific Nanobodies was covalently linked to NHS-agarose beads. The beads that were functionalized with these PDC1-specific Nanobodies were incubated for an hour at 4° C. on a rotating device with either an EBY100 lysate or the lysate of the engineered Yeast strain expressing PDC1 (Yeast GFP fusion collection reference: GFP(+)12, F8) as a GFP-tagged protein. After washing, these beads were resuspended in SDS-PAGE loading dye and analyzed on SDS-PAGE (FIG. 5A). Separated proteins were transferred to a PVDF membrane and the Western blot (FIG. 5B) was developed with GFP-specific antibody to confirm the presence of GFP-tagged PDC1.

GFP-tagged PDC1 = target: T3, GFP-tagged PDC1 (Saccharomyces cerevisiae, UniProt P06169 2-563); assay: co-immunoprecipitation, Nb coupled to NHS-agarose beads, lysate of the yeast strain expressing the GFP-tagged target, SDS-PAGE
T3 construct: Yeast GFP Fusion Collection strain; also called Yeast GFP fusion collection GFP(+)12, F8; not shown: GFP tag
T3 sequence (looked up): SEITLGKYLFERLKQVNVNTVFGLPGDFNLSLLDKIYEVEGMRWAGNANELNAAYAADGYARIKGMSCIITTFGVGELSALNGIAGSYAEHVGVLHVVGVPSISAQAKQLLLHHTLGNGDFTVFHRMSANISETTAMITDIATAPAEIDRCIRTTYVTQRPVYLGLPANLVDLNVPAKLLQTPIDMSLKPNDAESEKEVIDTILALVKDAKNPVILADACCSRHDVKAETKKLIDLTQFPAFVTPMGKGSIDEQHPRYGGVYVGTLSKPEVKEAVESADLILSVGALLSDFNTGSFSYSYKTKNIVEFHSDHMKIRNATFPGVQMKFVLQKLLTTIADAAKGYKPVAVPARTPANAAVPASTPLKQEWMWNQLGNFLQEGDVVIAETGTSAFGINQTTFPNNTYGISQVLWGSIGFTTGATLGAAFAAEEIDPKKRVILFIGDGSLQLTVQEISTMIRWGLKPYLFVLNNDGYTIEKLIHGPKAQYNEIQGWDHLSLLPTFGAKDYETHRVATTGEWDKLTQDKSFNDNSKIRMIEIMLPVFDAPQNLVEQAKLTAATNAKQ
Experimental: as §2

GFP-tagged SBA1 = target: T4, GFP-tagged SBA1 (Saccharomyces cerevisiae, UniProt P28707 2-216); assay: co-immunoprecipitation, Nb coupled to NHS-agarose beads, lysate of the yeast strain expressing the GFP-tagged target, Western blot anti-GFP
T4 construct: Yeast GFP Fusion Collection strain; also called Yeast GFP fusion collection GFP(+)30, A6; YKL117W; not shown: GFP tag
T4 sequence (looked up): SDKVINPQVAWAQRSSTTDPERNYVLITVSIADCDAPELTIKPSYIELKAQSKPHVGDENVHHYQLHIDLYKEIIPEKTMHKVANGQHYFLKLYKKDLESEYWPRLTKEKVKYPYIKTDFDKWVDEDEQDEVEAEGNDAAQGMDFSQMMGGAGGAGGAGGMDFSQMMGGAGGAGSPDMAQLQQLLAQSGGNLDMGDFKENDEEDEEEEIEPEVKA
Description: as §1

GFP-tagged SSA1 = target: T5, GFP-tagged SSA1 (Saccharomyces cerevisiae, UniProt P10591 2-642); assay: co-immunoprecipitation, Nb coupled to NHS-agarose beads, lysate of the yeast strain expressing the GFP-tagged target, SDS-PAGE
T5 construct: Yeast GFP Fusion Collection strain; also called Yeast GFP fusion collection GFP(+)10, E4; not shown: GFP tag
Experimental: (§3) Six SSA1-specific Nanobodies (60=Nb clone CA17560 corresponding to SEQ ID NO: 19, 61=CA17561-SEQ ID NO: 20, 62=CA17562-SEQ ID NO: 21, 63=CA17563-SEQ ID NO: 22, 64=CA17564-SEQ ID NO: 23, 65=CA17565-SEQ ID NO: 24) were characterized by co-immunoprecipitation assays. Each SSA1-specific Nanobodies was covalently linked to NHS-agarose beads. The beads that were functionalized with these SSA1-specific Nanobodies were incubated for an hour at 4° C. on a rotating device with either an EBY100 lysate or the lysate of the engineered Yeast strain expressing SSA1 (Yeast GFP fusion collection reference: GFP(+)10, E4) as a GFP-tagged protein. After washing, these beads were resuspended in SDS-PAGE loading dye and analyzed on SDS-PAGE (FIG. 6A). Separated proteins were transferred to a PVDF membrane and the Western blot (FIG. 6B) was developed with GFP-specific antibody to confirm the presence of GFP-tagged SSA1.

[2] = target: T6, SSA1 (native, from EBY100 lysate) (Saccharomyces cerevisiae, UniProt P10591 2-642); assay: co-IP, Nb on NHS-agarose beads, EBY100 yeast lysate, SDS-PAGE
T6 construct: mature; Endogenous untagged protein; also called YAL005C

[3] = target: T7, BMH1 (native, from EBY100 lysate) (Saccharomyces cerevisiae, UniProt P29311 2-267); assay: as above
T7 construct: mature; Endogenous untagged protein; also called YER177W
T7 sequence (looked up): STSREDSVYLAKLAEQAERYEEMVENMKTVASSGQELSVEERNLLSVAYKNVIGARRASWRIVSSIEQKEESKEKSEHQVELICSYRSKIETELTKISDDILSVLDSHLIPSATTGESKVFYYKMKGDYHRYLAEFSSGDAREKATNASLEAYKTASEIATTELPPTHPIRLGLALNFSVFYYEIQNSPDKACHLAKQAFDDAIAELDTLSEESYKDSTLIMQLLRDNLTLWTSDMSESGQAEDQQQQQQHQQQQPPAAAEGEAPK

GFP-tagged BMH1 = target: T8, GFP-tagged BMH1 (Saccharomyces cerevisiae, UniProt P29311 2-267); assay: co-immunoprecipitation, Nb coupled to NHS-agarose beads, lysate of the yeast strain expressing the GFP-tagged target, Western blot anti-GFP
T8 construct: Yeast GFP Fusion Collection strain; also called Yeast GFP fusion collection GFP(+)27, D5; not shown: GFP tag
T8 sequence (looked up): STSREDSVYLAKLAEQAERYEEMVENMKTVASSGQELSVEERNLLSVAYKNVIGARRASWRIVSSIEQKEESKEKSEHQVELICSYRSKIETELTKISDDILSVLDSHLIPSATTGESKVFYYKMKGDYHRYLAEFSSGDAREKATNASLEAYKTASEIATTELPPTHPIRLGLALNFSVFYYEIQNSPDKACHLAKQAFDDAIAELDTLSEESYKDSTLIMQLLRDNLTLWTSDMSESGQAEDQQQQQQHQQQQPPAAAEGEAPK
Experimental: One SIS1-specific Nanobody (44=Nb clone CA17444 corresponding to SEQ ID NO: 9), three ALD6-specific Nanobodies (53=CA17453-SEQ ID NO: 10, 54=CA17454-SEQ ID NO: 11, 60=CA17460-SEQ ID NO: 12), two BMH1-specific Nanobodies (58=CA17458-SEQ ID NO: 13, 59=CA17459-SEQ ID NO: 14) were characterized by co-immunoprecipitation assays. Each target-specific Nanobodies was covalently linked to NHS-agarose beads. The beads that were functionalized with these target-specific Nanobodies were incubated for an hour at 4° C. on a rotating device with either an EBY100 lysate or the lysate of the engineered Yeast strain expressing the target (Yeast GFP fusion collection reference for SIS1: GFP(+)22, E5, for ALD6: GFP(+)15, F1, for BMH1: GFP(+)27, D5) as a GFP-tagged protein. After washing, these beads were resuspended in SDS-PAGE loading dye and analyzed on SDS-PAGE (FIG. 8A). Separated proteins were transferred to a PVDF membrane and the Western blot (FIG. 8B) was developed with GFP-specific antibody to confirm the presence of GFP-tagged targets.

[4] = target: T6, SSA1 (native, from EBY100 lysate); assay: co-immunoprecipitation, Nb coupled to NHS-agarose beads, EBY100 yeast lysate (native target), SDS-PAGE
Experimental: as §3

T5 sequence (P10591 2-642): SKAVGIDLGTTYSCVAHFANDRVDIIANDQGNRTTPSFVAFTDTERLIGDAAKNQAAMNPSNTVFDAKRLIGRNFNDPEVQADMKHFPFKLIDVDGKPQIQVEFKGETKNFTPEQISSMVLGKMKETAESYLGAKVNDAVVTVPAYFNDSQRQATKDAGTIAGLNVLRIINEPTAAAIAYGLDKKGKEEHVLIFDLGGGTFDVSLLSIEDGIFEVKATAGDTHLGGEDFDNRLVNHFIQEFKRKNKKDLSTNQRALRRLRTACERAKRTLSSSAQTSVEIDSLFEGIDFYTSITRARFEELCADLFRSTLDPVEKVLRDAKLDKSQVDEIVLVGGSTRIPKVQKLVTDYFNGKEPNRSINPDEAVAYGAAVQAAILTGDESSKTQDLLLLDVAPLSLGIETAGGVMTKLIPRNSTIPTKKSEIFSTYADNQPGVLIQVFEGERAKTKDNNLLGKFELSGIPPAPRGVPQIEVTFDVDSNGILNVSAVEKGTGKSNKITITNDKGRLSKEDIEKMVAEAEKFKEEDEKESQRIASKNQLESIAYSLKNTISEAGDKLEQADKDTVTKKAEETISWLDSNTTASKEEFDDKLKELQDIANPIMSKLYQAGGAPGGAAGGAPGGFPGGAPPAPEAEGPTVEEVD
T6 sequence (P10591 2-642): as above
T1 sequence (P31539 whole entry, the tested form may be a part): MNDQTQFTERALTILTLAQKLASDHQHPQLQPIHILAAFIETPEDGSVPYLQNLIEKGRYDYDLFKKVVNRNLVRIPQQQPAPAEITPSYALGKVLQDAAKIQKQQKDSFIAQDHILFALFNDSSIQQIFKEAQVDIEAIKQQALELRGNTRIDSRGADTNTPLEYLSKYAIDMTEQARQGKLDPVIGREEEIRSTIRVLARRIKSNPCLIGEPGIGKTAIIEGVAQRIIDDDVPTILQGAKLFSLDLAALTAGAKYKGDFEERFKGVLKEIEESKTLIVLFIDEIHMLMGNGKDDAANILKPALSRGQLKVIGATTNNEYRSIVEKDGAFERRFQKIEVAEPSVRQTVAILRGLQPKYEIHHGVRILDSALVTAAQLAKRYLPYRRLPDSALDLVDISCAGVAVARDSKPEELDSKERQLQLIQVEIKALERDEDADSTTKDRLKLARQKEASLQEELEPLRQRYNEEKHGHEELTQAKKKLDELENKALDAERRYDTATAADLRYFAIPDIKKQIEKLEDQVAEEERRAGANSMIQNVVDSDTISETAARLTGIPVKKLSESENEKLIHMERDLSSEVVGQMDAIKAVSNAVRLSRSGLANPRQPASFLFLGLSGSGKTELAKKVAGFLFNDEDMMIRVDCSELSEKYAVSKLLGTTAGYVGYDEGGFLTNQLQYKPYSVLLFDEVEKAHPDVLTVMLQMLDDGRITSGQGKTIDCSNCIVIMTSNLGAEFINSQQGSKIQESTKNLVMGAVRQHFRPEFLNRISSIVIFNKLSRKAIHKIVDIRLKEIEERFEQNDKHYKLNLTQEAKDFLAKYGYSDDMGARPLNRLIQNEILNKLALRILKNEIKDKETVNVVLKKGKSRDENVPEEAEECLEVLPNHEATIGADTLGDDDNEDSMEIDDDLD

B1: CA18504 (VHH)
VHH: QVQLVESGGGLVQPGGSLTLSCAGSGRAFDSIAMGWFRQAPGKEREFVAAISWNGVSAYYADSVKGRFTISRDNAKNTVHLQMNSLQSDDTAVYYCHADNSWGQGTQVTVSS
notes: C-terminal 6xHis-EPEA tag is part of the entry
- binding result (GFP-tagged HSP104): binds

B2: CA17452 (VHH)
VHH: QVQLVESGGGLVQAGASLTLSCAASGRTFNTYSMHWFRQAPGKEREFVAATNWGGNSKFYADSVRGRFTISRDNTKNMVYLQMNSLKPEDTAVYYCAAHRTVVGKTPDYWGQGTQVTVSS
notes: as for B1
- binding result [1]: binds
- binding result (GFP-tagged PDC1): binds

B3: CA17451 (VHH)
VHH: QVQLVESGGGLVQPGGSLRLSCAASGISFSINTLGWYRQAPGKQRELVATVTTGGSTYYVDSAKGRFTVSRDNAKNTVYLQMNSLNSEDTAVYYCKLERYGVWGQGTQVTVSS
notes: as for B1
- binding result [1]: binds
- binding result (GFP-tagged PDC1): binds

B4: CA18509 (VHH)
VHH: QVQLVESGGGLVQPGGSLRLSCAAAGFTFRMLDMSWYRQAPGKERELVATITSVSGTTNYADSVKGRVTISRDNAKNTVYLQMNSLKPEDTAVYYCNARMAAWGLDYWGQGTQVTVSS
notes: as for B1
- binding result (GFP-tagged SBA1): binds

B5: CA17561 (VHH)
VHH: QVQLVESGGGLVQAGGSLRLSCAASTRTFSNYVMAWFRQAPGKEREFVGAINWSGGTEYYADSVKGRFTISRDNAKNTVYLQMNDLNPEDTANYYCAARRGTIARTALVKYLEYDYWGQGTQVTVSS
notes: as for B1
- binding result (GFP-tagged SSA1): binds
- binding result [2]: binds

B6: CA18508 (VHH)
VHH: QVQLVESGGGLVQPGGSLRLSCAASGFTFSNTAMSWYRQAPGKERELVAVSTSAGGGTDYADSVQGRFTISRDNAKNTVYLQMNDLKPEDTAVYYCYAVGRYRSSWRLLPFGSWGQGTQVTVSS
notes: as for B1
- binding result (GFP-tagged SBA1): binds

B7: CA17458 (VHH)
VHH: QVQLVESGGGLVQPGGSLRLSCAASGTTLSLRRVGWYRQAPGKQRDLVATLTSGGETSYADSVKGRFTISRDNAKNTVYLQMNSLKLEDTAVYYCNAINWPMDYWGQGTQVTVSS
notes: as for B1
- binding result [3]: binds
- binding result (GFP-tagged BMH1): binds

B8: CA17560 (VHH)
VHH: QVQLVESGGGLVHSGGSLRLSCVASGGAFNDYTMGWFRQAPGKERQFVAAITWSSGVTSYSDSVRGRFVISRDIAKNTVYLQMNSLNPEETAVYVCAARLGVSSSPNSQISHRYDYWGQGTQVTVSS
notes: as for B1
- binding result [4]: binds
- binding result (GFP-tagged SSA1): binds
